This note sets out measurements from PMC6820557, “Discovery of dual-activity small-molecule ligands of Pseudomonas aeruginosa LpxA and LpxD using SPR and X-ray crystallography” (Scientific Reports, 2019).

Series [1] concerns the molecule itself. Kind of series: SEC; HiLoad 16/60 Superdex 75; 20 mM Tris pH 8.6, 250 mM NaCl, 1 mM EDTA.
Series [2] concerns the molecule itself. Kind of series: SEC; HiLoad 16/60 Superdex 75; 20 mM Tris-HCl pH 8.6, 250 mM NaCl.
Series [3] deals with the molecule itself. As to the kind of experiment: crystal structure; LpxA soaked with compound 1 (2.10 Å) or compound 2 (2.00 Å); P212121, six monomers per asymmetric unit; 12% PEG 1000, 0.2 M calcium acetate, 0.1 M imidazole pH 7.0.

B1: biotinylated avidity (Avi) tagged LpxD (enzyme, Pseudomonas aeruginosa, UniProt Q9HXY6 1-353, looked up)
chain: MMSTLSYTLGQLAAHVGAEVRGDADLPIQGLATLQEAGPAQLSFLANPQYRKYLPESRAGAVLLTAADADGFAGTALVVANPYLAYASLSHLFDRKPKAAAGIHPTAIVAADAEVDPSASVGAYAVIESGARIGAGVSIGAHCVIGARSVIGEGGWLAPRVTLYHDVTIGARVSIQSGAVIGGEGFGFANEKGVWQKIAQIGGVTIGDDVEIGANTTIDRGALSDTLIGNGVKLDNQIMIAHNVQIGDHTAMAACVGISGSAKIGRHCMLAGGVGLVGHIEICDNVFVTGMTMVTRSITEPGSYSSGTAMQPAAEWKKSAARIRQLDDMARRLQQLEKRLAAVTSSGDASSDA
modifications: biotin (on the Avi tag)
notes: LpxD, Pseudomonas aeruginosa; gene inserted into the BamHI and HindIII sites of the pAvibir plasmid; printed mass of Avi-LpxD 39.8 kDa; also called Avi-LpxD; source: E. coli Rosetta DE3 pLysS, purified (HisTrap, Superdex 75)
B1: the “stoichiometry N” value in series [1] turned out to be 3.

B2: N-terminal His-tagged P. aeruginosa LpxD with a 2 amino acid deletion (enzyme, Pseudomonas aeruginosa, UniProt Q9HXY6 3-353, looked up)
chain: STLSYTLGQLAAHVGAEVRGDADLPIQGLATLQEAGPAQLSFLANPQYRKYLPESRAGAVLLTAADADGFAGTALVVANPYLAYASLSHLFDRKPKAAAGIHPTAIVAADAEVDPSASVGAYAVIESGARIGAGVSIGAHCVIGARSVIGEGGWLAPRVTLYHDVTIGARVSIQSGAVIGGEGFGFANEKGVWQKIAQIGGVTIGDDVEIGANTTIDRGALSDTLIGNGVKLDNQIMIAHNVQIGDHTAMAACVGISGSAKIGRHCMLAGGVGLVGHIEICDNVFVTGMTMVTRSITEPGSYSSGTAMQPAAEWKKSAARIRQLDDMARRLQQLEKRLAAVTSSGDASSDA
notes: LpxD, Pseudomonas aeruginosa; they lay immediately after the N-terminal 18-AA hexahistidine tag and protease site (thrombin site replaced by a TEV site); Parent construct is that of the published structure (PDB 3PMO), with the thrombin site replaced by a TEV site; The mutagenesis primer reads ENLYFQG followed by STLSYT; Two of the deposited entries 6UEC, 6UED, 6UEE, 6UEG hold this construct; also …
With B2, in series [2], the “stoichiometry N” value came out at 3.

B3: P. aeruginosa LpxA (enzyme, Pseudomonas aeruginosa)
chain: MSLIDPRAIIDPSARLAADVQVGPWSIVGAEVEIGEGTVIGPHVVLKGPTKIGKHNRIYQFSSVGEDTPDLKYKGEPTRLVIGDHNVIREGVTIHRGTVQDRAETTIGDHNLIMAYAHIGHDSVIGNHCILVNNTALAGHVHVDDWAILSGYTLVHQYCRIGAHSFSGMGSAIGKDVPAYVTVFGNPAEARSMNFEGMRRRGFSSEAIHALRRAYKVVYRQGHTVEEALAELAESAAQFPEVAVFRDSIQSATRGITR
notes: LpxA, Pseudomonas aeruginosa; Two of the deposited entries 6UEC, 6UED, 6UEE, 6UEG hold this protein
As for B3, in series [3], the binding result is reported as “binds”.

B4: biotinylated avidity (Avi) tagged LpxA (enzyme, Pseudomonas aeruginosa, UniProt Q9X6P4 1-258, looked up)
chain: B3 chain
modifications: biotin (on the Avi tag)
notes: LpxA, Pseudomonas aeruginosa; gene inserted into the BamHI and HindIII sites of the pAvibir plasmid; printed mass of Avi-LpxA 31.6 kDa; also called Avi-LpxA; source: E. coli Rosetta DE3 pLysS, purified (HisTrap, Superdex 75)
On to B4, for which the “stoichiometry N” value in series [1] worked out at 3.
